In PMC6593408:

Key:
Test in all cases: EMSA
Details in all cases: EMSA: pKa-matched buffers (ethanolamine-CAPSO pH 9.6, Tris-acetate pH 8.0, bis-Tris-ACES pH 6.7), 155 mM NaCl, 5 nM DNA, 2.5-20 or 40 uM protein, 30 min room …
[1] = biological target: T1, 0100 (Csa1A) (Staphylococcus aureus USA300 LAC) (UniProt Q2FKG1)
T1 sequence: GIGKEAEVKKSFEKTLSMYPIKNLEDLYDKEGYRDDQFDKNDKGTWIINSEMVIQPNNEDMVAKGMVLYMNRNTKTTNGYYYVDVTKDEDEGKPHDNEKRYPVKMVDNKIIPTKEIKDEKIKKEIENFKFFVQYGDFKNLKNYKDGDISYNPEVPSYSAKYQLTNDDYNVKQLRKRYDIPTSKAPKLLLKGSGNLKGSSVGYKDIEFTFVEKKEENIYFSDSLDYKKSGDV

[2] = biological target: T2, CopL (0079) (Staphylococcus aureus USA300 LAC) (UniProt A0A0H2XFS1)
T2 sequence: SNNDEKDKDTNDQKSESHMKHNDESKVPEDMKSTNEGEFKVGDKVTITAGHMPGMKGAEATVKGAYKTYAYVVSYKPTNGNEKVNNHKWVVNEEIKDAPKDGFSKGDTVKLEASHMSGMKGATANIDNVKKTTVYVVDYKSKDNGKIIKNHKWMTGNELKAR

[3] = biological target: T3, DsbA (Staphylococcus aureus USA300 LAC) (UniProt A0A0H2XFS3)
T3 sequence: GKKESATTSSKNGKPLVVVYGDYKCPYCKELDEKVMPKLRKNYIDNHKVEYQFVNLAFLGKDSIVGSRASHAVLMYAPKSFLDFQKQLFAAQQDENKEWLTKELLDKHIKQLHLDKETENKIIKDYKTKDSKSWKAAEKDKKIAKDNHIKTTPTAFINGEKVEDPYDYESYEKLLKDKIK

Measured: binding

GTTCATTATGAAGTCCCTCCAAAAATCATTTGATAATATAGTTTACAGCTATAATTGTAAACGCTATCATAAAATGTAACAATATCTTTTTGAAAATTGTAGTCATATTTATGTATAATTAATGAAAATGTTTTTCAAAATCAATAGAAATGGAGTGAGTAAGGTGTATTACATCGCAATCGATATTGGAGGCACTCAAATTAAATCGGCAGTTATTGATAAGCAATTGAATATGTTTGACTATCAACAAATATCAACG (double strand) [259-bp nanA promoter probe]
binds: all assays above
